Changes are numbered by the printed parent chain.

These results are taken from patent US20170081400A1 (CEPHALON, published 2017).

Sequences and labels used below:
B1: 320-201 (antibody, human IgG1, name in Kabat numbering, V domains shown)
VH: QVQLVQSGAEVKKPGASVKVSCKASGYTFTSYDINWVRQAPGQGLEWMGWLNPNSGNTGYAQKFQGRVTMTADRSTSTAYMELSSLRSEDTAVYYCAREVPETAAFEYWGQGTLVTVSS
VL: QSVLTQPPSVSGAPGQRVTISCTASSSDIGAGLGVHWYQQLPGTAPKLLIEGYYNRPSGVPDRFSGSKSGTSASLTITGLLPEDEGDYYCQSYDGTLSALFGGGTKLTVLG
notes: human IgG1, lambda
B2: 320-213 (antibody, human IgG1, name in Kabat numbering, V domains shown)
VH: B1 VH
VL: B1 VL with A24S, S25K
notes: human IgG1, lambda
B3: 320-205 (antibody, human IgG1, name in Kabat numbering, V domains shown)
VH: B1 VH
VL: B1 VL with A24K
notes: human IgG1, lambda
B4: 320-211 (antibody, human IgG1, name in Kabat numbering, V domains shown)
VH: B1 VH
VL: B1 VL with A24S, S25D
notes: human IgG1, lambda
B5: 320-613 (antibody, human IgG1, name in Kabat numbering, V domains shown)
VH: B1 VH with N57Y
VL: B1 VL with A24S, Y93W, G95Y
notes: full-length human IgG1, lambda
B6: 320-611 (antibody, human IgG1, name in Kabat numbering, V domains shown)
VH: B1 VH with N57Y
VL: B1 VL with A24S, Y93W, G95K
notes: as for B5
B7: 320-601 (antibody, human IgG1, name in Kabat numbering, V domains shown)
VH: B1 VH with N57Y
VL: B1 VL with A24S, Y93F
notes: as for B5
B8: 320-616 (antibody, human IgG1, name in Kabat numbering, V domains shown)
VH: B1 VH with N57Y
VL: B1 VL with A24S, G95A
notes: as for B5
B9: 320-615 (antibody, human IgG1, name in Kabat numbering, V domains shown)
VH: B1 VH with N57Y
VL: B1 VL with A24S, G95Y
notes: as for B5
B10: 320-193 (antibody, human IgG1, name in Kabat numbering, V domains shown)
VH: B1 VH
VL: B1 VL with T23S, A24S
notes: human IgG1, lambda
B11: 320-218 (antibody, human IgG1, name in Kabat numbering, V domains shown)
VH: B1 VH
VL: B1 VL with A24S, S26Q
notes: human IgG1, lambda
B12: 320-194 (antibody, human IgG1, name in Kabat numbering, V domains shown)
VH: B1 VH
VL: B1 VL with T23Q, A24S
notes: human IgG1, lambda
B13: 320-203 (antibody, human IgG1, name in Kabat numbering, V domains shown)
VH: B1 VH
VL: B1 VL with A24D
notes: human IgG1, lambda
B14: 320-199 (antibody, human IgG1, name in Kabat numbering, V domains shown)
VH: B1 VH
VL: B1 VL with T23W, A24S
notes: human IgG1, lambda
B15: 320-221 (antibody, human IgG1, name in Kabat numbering, V domains shown)
VH: B1 VH
VL: B1 VL with A24S, S26K
notes: human IgG1, lambda
B16: 320-237 (antibody, human IgG1, name in Kabat numbering, V domains shown)
VH: B1 VH
VL: B1 VL with A24S, D28K
notes: human IgG1, lambda
B17: 320-233 (antibody, human IgG1, name in Kabat numbering, V domains shown)
VH: B1 VH
VL: B1 VL with A24S, D28A
notes: human IgG1, lambda
B18: 320-197 (antibody, human IgG1, name in Kabat numbering, V domains shown)
VH: B1 VH
VL: B1 VL with T23K, A24S
notes: human IgG1, lambda
B19: 320-236 (antibody, human IgG1, name in Kabat numbering, V domains shown)
VH: B1 VH
VL: B1 VL with A24S, D28H
notes: human IgG1, lambda

In the first experiment the target is T1, human TL1A extracellular domain with N-terminal HIS and FLAG tag (human) (UniProt O95150).
T1 sequence: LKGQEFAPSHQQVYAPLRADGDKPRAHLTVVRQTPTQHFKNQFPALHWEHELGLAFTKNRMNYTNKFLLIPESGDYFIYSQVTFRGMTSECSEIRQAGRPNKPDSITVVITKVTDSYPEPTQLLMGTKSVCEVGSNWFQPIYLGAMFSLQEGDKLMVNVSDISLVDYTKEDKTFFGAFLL
The experiment can be described thus: cell-based or functional assay.
B1 yielded an Antibody IC50, TL1A induced caspase potency assay in TF-1 cells of 0.005 µg/mL and a Fold improvement over 320-179, TL1A induced caspase potency assay in TF-1 cells of 2 fold.

For the molecule B2, the Antibody IC50, TL1A induced caspase potency assay in TF-1 cells is 0.07 µg/mL and the Fold improvement over 320-179, TL1A induced caspase potency assay in TF-1 cells worked out at 0 fold.

Take B3: the Antibody IC50, TL1A induced caspase potency assay in TF-1 cells came to 0.02 µg/mL and the Fold improvement over 320-179, TL1A induced caspase potency assay in TF-1 cells came to 2 fold.

B4 came in with an Antibody IC50, TL1A induced caspase potency assay in TF-1 cells of 0.01 µg/mL and a Fold improvement over 320-179, TL1A induced caspase potency assay in TF-1 cells of 3 fold.

A further experiment has as its target T2, human TL1A extracellular domain with N-terminal HIS and FLAG tag (human, UniProt O95150 72-251).
T2 sequence: T1 sequence
The experiment can be described thus: cell-based or functional assay.
With B5, the “Antibody IC50, TL1A induced caspase potency assay in TF-1 cells” value (“Antibody IC50” below) worked out at 0.01 µg/mL and the “Fold improvement over 320-179, TL1A induced caspase potency assay in TF-1 cells” value (“Fold improvement” for short) worked out at 4 fold.

On to B6, for which the “Antibody IC50” value was determined as 0.005 µg/mL and the “Fold improvement” value worked out at 8 fold.

Turning to B7, the “Antibody IC50” value came to 0.002 µg/mL and the “Fold improvement” value came out at 10 fold.

A further experiment has as its target T2, human TL1A extracellular domain with …. The experiment can be described thus: SPR Run 9, antibody on Protein A, TL1A 5 ug/mL, timepoint 44. The source says: (§1) 1.5. Antibody expression and antigen binding as determined by SPR. Using a CM5 sensor chip (GE Healthcare) Protein A (Pierce) was coupled to the chip surface using an amine coupling kit (GE Healthcare). Protein A was coupled on flow cell 1 and 2 (or alternatively 3 and 4) using a BIACORE® T200. […] The amount of supernatant or purified protein (as well as the concentration) injected during the capture stage varied between runs and is specified in the header of the Tables 3-11. At the end of injection of the supernatant or purified antibody the change in response units was measured. This value was reported as Capture Level in Tables 3-11. […] The response units were measured prior to the end of the dissociation phase. […] The sensorgrams were double referenced (flow cell 2 is subtracted from flow cell 1 and a buffer blank). As there were a large number of antibody variants to screen, these were screened across different runs (Tables 3-11). […] A summary of the conditions used in each run is below:
(§2) 2.1. […] In some experiment the antibodies were purified using Protein A chromatography (See 1.4) and purified antibodies were used in BIACORE® (GE Healthcare) experiments.
B5: the “TL1A Binding Level (Early)” value stood at 135 RU.

In the case of B6, the “TL1A Binding Level (Early)” value turned out to be 125 RU.

In the case of B8, the “TL1A Binding Level (Early)” value is 120 RU.

Turning to B9, the “TL1A Binding Level (Early)” value came to 113 RU.

As for B7, the “TL1A Binding Level (Early)” value was found to be 121 RU.

For a further experiment the target is unchanged. Briefly: SPR Run 9, antibody on Protein A, TL1A 5 ug/mL, timepoint 590.
Description: as §1, §2
Turning to B5, the “TL1A Binding Level (Late)” value stood at 131 RU.

For B6, the “TL1A Binding Level (Late)” value turned out to be 127 RU.

Consider B8, for which the “TL1A Binding Level (Late)” value worked out at 112 RU.

On to B9, for which the “TL1A Binding Level (Late)” value amounted to 108 RU.

Turning to B7, the “TL1A Binding Level (Late)” value was 120 RU.

Another experiment addresses T3, human TL1A extracellular domain with N-terminal HIS and FLAG tag (human, UniProt O95150 72-251).
T3 construct: whole entry named. ~70 kDa fraction purified by gel filtration
T3 sequence: T1 sequence
Briefly: SPR run 2; supernatant on Protein A; TL1A 10 ug/mL; timepoint 44. The procedure, abridged:
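The capture level was the response change at the end of loading, which varied by run. Antigen response was read before dissociation ended, double-referenced against a reference flow cell and a buffer blank.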
B10: the “TL1A Binding Level (Early)” value turned out to be 249 RU.

In the case of B1, the “TL1A Binding Level (Early)” value was 274 RU.

Take B2: the “TL1A Binding Level (Early)” value was 218 RU.

As to B11, the “TL1A Binding Level (Early)” value was 239 RU.

In the case of B12, the “TL1A Binding Level (Early)” value worked out at 247 RU.

Consider B3, for which the “TL1A Binding Level (Early)” value is 290 RU.

Take B13: the “TL1A Binding Level (Early)” value stood at 61 RU.

Regarding B14, the “TL1A Binding Level (Early)” value was 251 RU.

B15: the “TL1A Binding Level (Early)” value came to 225 RU.

On to B16, for which the “TL1A Binding Level (Early)” value was determined as 240 RU.

B4: the “TL1A Binding Level (Early)” value is 206 RU.

For B17, the “TL1A Binding Level (Early)” value was found to be 255 RU.

Consider B18, for which the “TL1A Binding Level (Early)” value came to 255 RU.

Regarding B19, the “TL1A Binding Level (Early)” value is 254 RU.

For a further experiment, the target named is T3, human TL1A extracellular domain with …. The experiment can be described thus: SPR run 2; supernatant on Protein A; TL1A 10 ug/mL; timepoint 220. The procedure, abridged:
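CM5 chip, amine-coupled Protein A; capture of supernatant or purified Ab (load varies per run); capture level = ΔRU at end of injection; binding RU read late in dissociation; double referencing (reference cell + buffer blank).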
For the molecule B10, the “TL1A Binding Level (Late)” value was 227 RU.

Regarding B1, the “TL1A Binding Level (Late)” value stood at 252 RU.

On to B2, for which the “TL1A Binding Level (Late)” value was 194 RU.

With B11, the “TL1A Binding Level (Late)” value was found to be 218 RU.

Regarding B12, the “TL1A Binding Level (Late)” value came to 226 RU.

Regarding B3, the “TL1A Binding Level (Late)” value stood at 271 RU.

As to B13, the “TL1A Binding Level (Late)” value came to 24 RU.

As for B14, the “TL1A Binding Level (Late)” value was 233 RU.

For the molecule B15, the “TL1A Binding Level (Late)” value came to 207 RU.

With B16, the “TL1A Binding Level (Late)” value amounted to 221 RU.

Turning to B4, the “TL1A Binding Level (Late)” value stood at 164 RU.

On to B17, for which the “TL1A Binding Level (Late)” value came out at 235 RU.

On to B18, for which the “TL1A Binding Level (Late)” value worked out at 232 RU.

For the molecule B19, the “TL1A Binding Level (Late)” value stood at 232 RU.

The target is the same in another experiment. The experiment can be described thus: SPR run 2; purified antibody on Protein A; TL1A 10 ug/mL; timepoint 44.
Description: as §1, §2
For the molecule B10, the “TL1A Binding Level (Early)” value turned out to be 103 RU.

For the molecule B1, the “TL1A Binding Level (Early)” value is 73 RU.

As for B2, the “TL1A Binding Level (Early)” value was determined as 79 RU.

Take B11: the “TL1A Binding Level (Early)” value amounted to 92 RU.

Regarding B12, the “TL1A Binding Level (Early)” value stood at 76 RU.

For B3, the “TL1A Binding Level (Early)” value was 70 RU.

Regarding B13, the “TL1A Binding Level (Early)” value came to 65 RU.

In the case of B14, the “TL1A Binding Level (Early)” value turned out to be 97 RU.

Consider B15, for which the “TL1A Binding Level (Early)” value was 99 RU.

In the case of B16, the “TL1A Binding Level (Early)” value amounted to 10 RU.

For the molecule B4, the “TL1A Binding Level (Early)” value was 80 RU.

For the molecule B17, the “TL1A Binding Level (Early)” value worked out at 48 RU.

As to B18, the “TL1A Binding Level (Early)” value stood at 105 RU.

Turning to B19, the “TL1A Binding Level (Early)” value was determined as 5 RU.

The target is the same in another experiment. The experiment can be described thus: SPR run 2; purified antibody on Protein A; TL1A 10 ug/mL; timepoint 590.
Description: as §1, §2
For the molecule B10, the “TL1A Binding Level (Late)” value is 91 RU.

As for B1, the “TL1A Binding Level (Late)” value worked out at 57 RU.

As for B2, the “TL1A Binding Level (Late)” value stood at 65 RU.

Take B11: the “TL1A Binding Level (Late)” value was found to be 80 RU.

With B12, the “TL1A Binding Level (Late)” value stood at 64 RU.

Turning to B3, the “TL1A Binding Level (Late)” value worked out at 51 RU.

As to B13, the “TL1A Binding Level (Late)” value is 35 RU.

Regarding B14, the “TL1A Binding Level (Late)” value was 85 RU.

Take B15: the “TL1A Binding Level (Late)” value turned out to be 89 RU.

On to B16, for which the “TL1A Binding Level (Late)” value was found to be 8 RU.

As for B4, the “TL1A Binding Level (Late)” value amounted to 64 RU.

As for B17, the “TL1A Binding Level (Late)” value amounted to 16 RU.

As for B18, the “TL1A Binding Level (Late)” value turned out to be 94 RU.

On to B19, for which the “TL1A Binding Level (Late)” value was found to be 6 RU.
